“And” between values parts separate entries of the source, which are not always exact repeats. Identical values can stand only once. Like-named read-outs stand apart in the source and are kept apart here. Values belong to the substance of their own block, whether it stands above or below them.
Tests used:
[1] = target: CR8071 lambda light chain L1, design 3025 (E124Q_T131R); test: SMCA: H1,L1,H2,L2 co-expressed, protein A, LC-MS
[2] = target: CR8071 lambda light chain L1, design 2892 (S176K_Y178K); test: SMCA: H1,L1,H2,L2 co-expressed, protein A, LC-MS
[3] = target: Pertuzumab light chain (kappa) V133G_S176D_T180E, HA-tagged; test: LCCA
[4] = target: Pertuzumab light chain (kappa) V133G_S176D_T178E, HA-tagged; test: LCCA
[5] = target: Pertuzumab light chain (kappa) V133G_S176D_T180E, HA-tagged; test: LCCA; remark: listed apart in the source
[6] = target: Pertuzumab light chain (kappa) V133G_S176D_T178E, HA-tagged; test: LCCA; remark: listed apart in the source
[7] = target: Pertuzumab light chain (kappa) V133G_S176D_T180E, HA-tagged; test: LCCA; remark: listed apart in the source
[8] = target: SGN-CD19a kappa light chain L2, design 3025 (S131D_V133G_T178F); test: SMCA: H1,L1,H2,L2 co-expressed, protein A, LC-MS
[9] = target: SGN-CD19a kappa light chain L2, design 3025 (S131D_V133G_T178F); test: SMCA: H1,L1,H2,L2 co-expressed, protein A, LC-MS; remark: listed apart in the source
[10] = target: CR8071 lambda light chain L1, design 3122 (V133D_Y178T); test: SMCA: H1,L1,H2,L2 co-expressed, protein A, LC-MS
[11] = target: CR8071 lambda light chain L1, design 2994 (E124Q_T131K); test: SMCA: H1,L1,H2,L2 co-expressed, protein A, LC-MS
[12] = target: CR8071 lambda light chain L1 of design 2830 (E124K_Y178R); test: SMCA: H1, L1, H2, L2 co-expressed in CHO-3E7
[13] = target: SGN-CD19a kappa light chain L2 of design 2830 (T178E_T180E); test: SMCA: H1, L1, H2, L2 co-expressed in CHO-3E7
[14] = target: His-tagged Influenza B Hemagglutinin (B/Brisbane/60/2008) (Influenza B (B/Brisbane/60/2008))
[15] = target: CR8071 lambda light chain L1 (S180E), designs 2816 and 2827; test: SMCA, System C, LC-MS
[16] = target: CR8071 lambda light chain L1 (S180E), designs 2816 and 2827; test: SMCA, System C
[17] = target: CR8071 lambda light chain L1, design 3878 (K129T_S180E); test: SMCA: H1,L1,H2,L2 co-expressed, protein A, LC-MS
[18] = target: SGN-CD19a kappa light chain L2, designs 2892 and 2994 (Q124E_V133D); test: SMCA: H1,L1,H2,L2 co-expressed, protein A, LC-MS
[19] = target: SGN-CD19a kappa light chain L2, designs 2892 and 2994 (Q124E_V133D); test: SMCA: H1,L1,H2,L2 co-expressed, protein A, LC-MS; remark: listed apart in the source
[20] = target: SGN-CD19a kappa light chain L2, designs 2892 and 2994 (Q124E_V133D); test: SMCA: H1,L1,H2,L2 co-expressed, protein A, LC-MS; remark: listed apart in the source
[21] = target: SGN-CD19a kappa light chain L2, designs 2892 and 2994 (Q124E_V133D); test: SMCA: H1,L1,H2,L2 co-expressed, protein A, LC-MS; remark: listed apart in the source
[22] = target: SGN-CD19a kappa light chain L2, design 3878 (Q124R_Q160K_T178R); test: SMCA: H1,L1,H2,L2 co-expressed, protein A, LC-MS
[23] = target: SGN-CD19a kappa light chain L2, design 3878 (Q124R_Q160K_T178R); test: SMCA: H1,L1,H2,L2 co-expressed, protein A, LC-MS; remark: listed apart in the source
[24] = target: SGN-CD19a kappa light chain L2, design 3122 (S176K_T178K); test: SMCA: H1,L1,H2,L2 co-expressed, protein A, LC-MS
[25] = target: SGN-CD19a kappa light chain L2, design 3122 (S176K_T178K); test: SMCA: H1,L1,H2,L2 co-expressed, protein A, LC-MS; remark: listed apart in the source

Substance: CR8071 heavy chain H1, design 3025 (L143D_K145T)
% H1L1 Pairing [1]: 43.9%
Change in % H1L1 Pairing with respect to wild type [1]: -4.5%

Substance: CR8071 heavy chain H1, design 2892 (K145T_V177D_S188D)
% H1L1 Pairing [2]: 41.5%
Change in % H1L1 Pairing with respect to wild type [2]: -6.9%

Substance: Pertuzumab heavy chain Fab construct L124R_S186R
H2L2:H2L1 normalized median scalar value ln(r1/f1) [3]: 1.21
H2L2:H2L1 normalized median scalar value ln(r1/f1) [4]: 1.04
H2L2:H2L1 normalized median scalar value ln(r1/f1) [5]: 1.5
H2L2:H2L1 normalized median scalar value ln(r1/f1) [6]: 1.18
H2L2:H2L1 normalized median scalar value ln(r1/f1) [7]: 1.47

Substance: Pertuzumab heavy chain Fab construct L124R_Q179K
H2L2:H2L1 normalized median scalar value ln(r1/f1) [3]: 0.63
H2L2:H2L1 normalized median scalar value ln(r1/f1) [4]: 0.77
H2L2:H2L1 normalized median scalar value ln(r1/f1) [5]: 0.95
H2L2:H2L1 normalized median scalar value ln(r1/f1) [6]: 0.69
H2L2:H2L1 normalized median scalar value ln(r1/f1) [7]: 0.97

Substance: CR8071 heavy chain H1, design 2994 (L143E_K145T_Q179E)
% H1L1 Pairing [11]: 26.3%
Change in % H1L1 Pairing with respect to wild type [11]: -22.1%

Substance: CR8071 heavy chain H1 of design 2830 (L143E_K145T_Q179E), full-length with heterodimeric IgG1 Fc
% H1L1 Pairing [12]: 28%
Change in % H1L1 Pairing with respect to wild type [12]: -20.4%

Substance: CR8071 wild type one-armed antibody (OAA), FLAG-tagged light chain
Kd [14]: 0.332 nM

Substance: CR8071 heavy chain H1, design 3878 (Q179K)
% H1L1 Pairing [17]: 99.3%
Change in % H1L1 Pairing with respect to wild type [17]: 17%

Substance: SGN-CD19a heavy chain H2, design 3878 (L143E_K145T_S188L)
% H2L2 Pairing [22]: 28.7%
Change in % H2L2 Pairing with respect to wild type [22]: -8.9%
% H2L2 Pairing [23]: 67.4%
Change in % H2L2 Pairing with respect to wild type [23]: 7.5%

Substance: CR8071 heavy chain H1, design 2827 (S186R)
Change in % H1L1 Pairing with respect to wild type [15]: 15.9%
% H1L1 Pairing [16]: 98.2%

Substance: CR8071 wild type one-armed antibody (OAA), no tags
Kd [14]: 0.385 nM and 0.379 nM

The next lines start with the values.

% H2L2 Pairing [8]: 87.9%
Change in % H2L2 Pairing with respect to wild type [8]: 33.7%
% H2L2 Pairing [9]: 99.7%
Change in % H2L2 Pairing with respect to wild type [9]: 20.1%
Substance: SGN-CD19a heavy chain H2, design 3025 (S188K)

% H1L1 Pairing [10]: 65.8%
Change in % H1L1 Pairing with respect to wild type [10]: -16.5%
Substance: CR8071 heavy chain H1, design 3122 (S186K_S188T)

% H2L2 Pairing [13]: 99.6%
Change in % H2L2 Pairing with respect to wild type [13]: 20%
Substance: SGN-CD19a heavy chain H2 of design 2830 (S186R), full-length with heterodimeric IgG1 Fc

Change in % H1L1 Pairing with respect to wild type [15]: 17%
% H1L1 Pairing [16]: 99.3%
Substance: CR8071 heavy chain H1, design 2816 (Q179K)

% H2L2 Pairing [18]: 94.3%
Change in % H2L2 Pairing with respect to wild type [18]: 40.1%
% H2L2 Pairing [19]: 99.6%
Change in % H2L2 Pairing with respect to wild type [19]: 20%
% H2L2 Pairing [20]: 99.2%
Change in % H2L2 Pairing with respect to wild type [20]: 45%
% H2L2 Pairing [21]: 99.7%
Change in % H2L2 Pairing with respect to wild type [21]: 20.1%
Substance: SGN-CD19a heavy chain H2, designs 2892 and 2994 (L143K)

% H2L2 Pairing [24]: 89.7%
Change in % H2L2 Pairing with respect to wild type [24]: 52.1%
% H2L2 Pairing [25]: 99.8%
Change in % H2L2 Pairing with respect to wild type [25]: 39.9%
Substance: SGN-CD19a heavy chain H2, design 3122 (K145T_V177D_S188D)

Reference: patent publication US20190338048A1
